From patent US12466890 come the findings set out here.

For this assay, the target named is TL1A monomer mutant. The experiment in a line: method not stated (row 'Binds monomer mutant').

Regarding Comparator antibody 2 (MK-7240), the Kd is 0.13 nM.

For orientation: Kd means a measure of binding affinity in units of concentration. A higher Kd goes with a looser complex.
